The chains are these.
B1: Intersectin-1, residues 1156 to 1213; numbered along this chain, Q15811 (parent)
chain: AVCQVIGMYDYTAQNDDELAFNKGQIINVLNKEDPDWWKGEVNGQVGLFPSNYVKLTT

± gives the uncertainty stated by the source.

This data set covers variants of B1. The data set can be described thus: abundance fitness (aPCA) (normalised: wild type 0, dead -1); higher = more abundant; growth selection in yeast, the domain comes from the species named. As to conditions: Homo sapiens.
On to AVCQVIGMYDYTAQNDDELAFNKGQIINVLNKEDPDWWKGEVNGQVGLFPSEYVKLTT [N52E], for which the abundance fitness was -0.201 ± 0.11.

Take AVCQVIGMYDYTAQNDDELAFNKGQIINVLNKEDPDWWKGEVNGQVGLFPSPYVKLTT [N52P]: the abundance fitness was -0.544 ± 0.18.

Consider AVCQVIGMYDYTAQNDDELAFNKGQIINVLNKEDPDWWKGEVNGQVGLFPSSYVKLTT [N52S], for which the abundance fitness was -0.075 ± 0.097.

Regarding AVCQVIGMYDYTAQNDDELAFNKGQIINVLNKEDPDWWKGEVNGQVGLFPSYYVKLTT [N52Y], the abundance fitness is -0.291 ± 0.21.

Turning to AVCQVIGMYDYTAQNDDELAFNKGQIINVLNKEDPDWWKGEVNGQVGLFPSCYVKLTT [N52C], the abundance fitness is -0.251 ± 0.12.

AVCQVIGMYDYTAQNDDELAFNKGQIINVLNKEDPDWWKEEVNGQVGLFPSNYVKLTT [G40E]: the abundance fitness was -0.769 ± 0.16.

In the case of AVCQVIGMYDYTAQNDDELAFNKGQIINVLNKEDPDWWKWEVNGQVGLFPSNYVKLTT [G40W], the abundance fitness is -0.981 ± 0.18.

Take AVCQVIGMYDYTAQNDDELAFNKGQIINVGNKEDPDWWKGEVNGQVGLFPSNYVKLTT [L30G]: the abundance fitness is -0.933 ± 0.14.

As for AVCQVIGMYDYTAQNDDELAFNKGQIINTLNKEDPDWWKGEVNGQVGLFPSNYVKLTT [V29T], the abundance fitness is -0.788 ± 0.16.

With AVCQVIGMYDYTAQNDDELAFNKGQIINSLNKEDPDWWKGEVNGQVGLFPSNYVKLTT [V29S], the abundance fitness is -0.827 ± 0.13.

For the variant AVCQVIGMYDYTAQNDDELAFNKGQIINVLNKEDPDWWKGEVNGQVGLFPSNYVILTT [K55I], the abundance fitness is -0.325 ± 0.21.

As for AVCQVIGMYDYTAQNDDELAFNKGQIINVLNKEDPDWWKGEVNGQVGLFYSNYVKLTT [P50Y], the abundance fitness is -0.932 ± 0.27.

Regarding AVCQVIGMYDYTAQNDDELAFNKGQIINVLNKEDPDWWKGEVNGQVGLFESNYVKLTT [P50E], the abundance fitness is -0.847 ± 0.25.

On to AVCQVIGMYDYTAQNDDELAFNKGQIINVLNKEDPDWWKGEVNGQVGPFPSNYVKLTT [L48P], for which the abundance fitness was -0.886 ± 0.17.

In the case of AVCQVIGMYDYTAQNDDELAFNKGQIINVLNKEDPDWWKGEVNGQVGSFPSNYVKLTT [L48S], the abundance fitness is -0.258 ± 0.086.

For the variant AVLQVIGMYDYTAQNDDELAFNKGQIINVLNKEDPDWWKGEVNGQVGLFPSNYVKLTT [C3L], the abundance fitness was -0.387 ± 0.11.

Regarding AVCQVIGMYDYIAQNDDELAFNKGQIINVLNKEDPDWWKGEVNGQVGLFPSNYVKLTT [T12I], the abundance fitness was -0.608 ± 0.17.

Consider AVCQVIGMYDYRAQNDDELAFNKGQIINVLNKEDPDWWKGEVNGQVGLFPSNYVKLTT [T12R], for which the abundance fitness is -0.072 ± 0.083.

With AVCQVIGMYDYTAQNDDELAFNKGQIINVLNSEDPDWWKGEVNGQVGLFPSNYVKLTT [K32S], the abundance fitness is -0.16 ± 0.13.

In the case of AVCQVIGMYDYTAQNDDELAFNKGQIINVLNKEGPDWWKGEVNGQVGLFPSNYVKLTT [D34G], the abundance fitness is -0.409 ± 0.1.

For the variant AVCQVIGMYDYTNQNDDELAFNKGQIINVLNKEDPDWWKGEVNGQVGLFPSNYVKLTT [A13N], the abundance fitness is -0.839 ± 0.26.

As to AVCQVIGMYDYTAQNDDELAFNKGQIINVLNKHDPDWWKGEVNGQVGLFPSNYVKLTT [E33H], the abundance fitness is -0.373 ± 0.18.

For the variant AVCQVIGMYDYTAQNDDELAFNKGQIINVLNKSDPDWWKGEVNGQVGLFPSNYVKLTT [E33S], the abundance fitness is -0.101 ± 0.11.

On to AVCQVIGMYDYTAQNDDELAFNKGQIINVLNKEDPDWWKGEVNGQVGLFPENYVKLTT [S51E], for which the abundance fitness is -1.02 ± 0.23.

For the variant AVCQVIGMYDYTAQNDDELAFNKGQIINVLNKEDPDIWKGEVNGQVGLFPSNYVKLTT [W37I], the abundance fitness was -0.022 ± 0.15.

With AVCQVIGMYDYTAQNDDELAFNKGQIINVLNKEDPDQWKGEVNGQVGLFPSNYVKLTT [W37Q], the abundance fitness is -0.223 ± 0.13.

On to AVCQVIGMYDYTAQNDDELAFNKGQIINVLNKEDPDMWKGEVNGQVGLFPSNYVKLTT [W37M], for which the abundance fitness stood at 0.004 ± 0.12.

As to AVCQVIGMYDYTAQNDDELAFNKGQIINVLNKEDPDWWKGEVNGQVNLFPSNYVKLTT [G47N], the abundance fitness is -0.651 ± 0.24.

In the case of AVCQVIGMYDYTAQNDDELAFNKGQIINVLNKEDPDWWKGEVNGQVCLFPSNYVKLTT [G47C], the abundance fitness was -0.974 ± 0.2.

On to AVCQVIGMYDYTAQNDDELAFNKGQIINVLAKEDPDWWKGEVNGQVGLFPSNYVKLTT [N31A], for which the abundance fitness is 0.037 ± 0.12.

Turning to AVCQVIGMYDYTAQNDDELAFNKGQIINVLEKEDPDWWKGEVNGQVGLFPSNYVKLTT [N31E], the abundance fitness came to 0.196 ± 0.15.

On to AVCQVIGMYDYTAQNDDELAFNKGQIINVLRKEDPDWWKGEVNGQVGLFPSNYVKLTT [N31R], for which the abundance fitness is -0.373 ± 0.094.

AVCQVIGMYDYTAQNDDELAFNKGQIINVLHKEDPDWWKGEVNGQVGLFPSNYVKLTT [N31H]: the abundance fitness was -0.095 ± 0.23.

As to AVCQVIGMYDYTAQNDDELAFNKGQIINVLCKEDPDWWKGEVNGQVGLFPSNYVKLTT [N31C], the abundance fitness worked out at 0.287 ± 0.16.

Consider ADCQVIGMYDYTAQNDDELAFNKGQIINVLNKEDPDWWKGEVNGQVGLFPSNYVKLTT [V2D], for which the abundance fitness is -0.142 ± 0.21.

With AHCQVIGMYDYTAQNDDELAFNKGQIINVLNKEDPDWWKGEVNGQVGLFPSNYVKLTT [V2H], the abundance fitness was -0.105 ± 0.21.

For the variant AVCQVIGMYDYTAQNDDELAFNKGQIINVLNKEDPDWWKGEVNGQVGLFPSNYGKLTT [V54G], the abundance fitness was -0.836 ± 0.12.

On to AVCQVIGMYDYTAQNDDELAFNKGQIINVLNKEDPDWWKGEVNGQVGLFPSNYFKLTT [V54F], for which the abundance fitness was -0.806 ± 0.25.

Take AVCQVIGMYDYTAQNDDELAFNKGQIINVLNKEDPDWWKGEVNGQVGLFPSNYVKITT [L56I]: the abundance fitness stood at 0.069 ± 0.2.

With AVCQVIGMYDYTAQNDDELAFNKGQIINVLNKEDPDWWKGEVNGQVGLFPSNYVKFTT [L56F], the abundance fitness is -0.124 ± 0.16.

Consider AVCQVIGMYDYTAQNDDELAFNKGQIINVLNKEDPDWWKGEVNGQVGLFPSNYVKYTT [L56Y], for which the abundance fitness was -0.168 ± 0.22.

Take AVCQVIGMYDYTAQNDDELAFNKGQIINVLNKEDPDWWKGEVNGQVGLFPSNYVKSTT [L56S]: the abundance fitness came to 0.083 ± 0.087.

With AVCQVIGMYDYTAQNDDELAFNKGQIINVLNKEDPDWTKGEVNGQVGLFPSNYVKLTT [W38T], the abundance fitness was -0.892 ± 0.17.

As for AVCQVIGMYDYTAQNDDELAFNKGQIINVLNKEDPDWPKGEVNGQVGLFPSNYVKLTT [W38P], the abundance fitness is -0.853 ± 0.22.

Turning to AVCQVIGMYDYTAQNDDELAFNKGQIINVLNKEDPDWHKGEVNGQVGLFPSNYVKLTT [W38H], the abundance fitness was -0.793 ± 0.21.
